The record followed here is patent US20260109758A1 (BIOSION, published 2026).

Where two headings read alike, the source gives them in different places.

The target of test [1] is human IL4Rα on HEK293T-IL4R/STAT6/STAT6-Luc LB2 cells (human, UniProt P24394 26-825). Kind of test: cell-based or functional assay.
The target in test [2] is T1, recombinant human TSLP-his (human, UniProt Q969D9 29-159, biotin-labeled in the ELISAs).
T1 construct: In-house made; not shown: His tag at the C-terminus
Briefly: capture ELISA: antibody captured on anti-human IgG Fc F(ab')2, biotin human TSLP-his, SA-HRP. The method, then: Briefly, 96-well micro plates were coated with 100 μL 2 μg/mL AffiniPure F(ab′)₂ Fragment Goat Anti-Human IgG, Fey fragment specific (Jackson Immuno Research, Cat #109-006-008) in PBS and incubated overnight at 4° C. Plates were washed 4 times with wash buffer (PBS+0.05% Tween-20, PBST) and then blocked with 200 μL/well blocking buffer (5% w/v non-fatty milk in PBST) for 2 hours at 37° C. […] After the final wash, the plates were incubated with 100 μL/well TMB (Innoreagents). The reaction was stopped 15 minutes later at room temperature with 50 μL/well 1M H₂SO₄, and the absorbance of each well was read on a microplate reader using dual wavelength mode with 450 nm for TMB and 630 nm as the reference wavelength. The OD (450-630) values were plotted against antibody concentration. Data was analyzed using Graphpad Prism and EC₅₀ values were reported.

Test [3] concerns the target T2, recombinant human IL4Rα-his (human, UniProt P24394 26-231, limits assumed, biotin-labeled in the capture ELISA).
T2 construct: In-house made; not shown: His tag at the C-terminus
Kind of test: capture ELISA: antibody captured on anti-human IgG Fc F(ab')2, biotin human IL4Rα-his, SA-HRP.

In test [4] the target is T3, biotin-labeled human TSLP-Fc (human, biotin-labeled).
T3 construct: also called TSLP-Fc protein; TSLP-Fc-biotin
Kind of test: cell-based blocking FACS: antibody pre-mixed with biotin human TSLP-Fc; blocked binding to cell-surface TSLPR/IL7Ra on HEK293T-TSLPR/IL7R/STAT5-Luc 5C5 cells.

The target in test [5] is T4, human IL4Rα expressed on 293F-IL4Rα cell surface (human, UniProt P24394 26-825).
T4 construct: whole, on cells; also called human IL4Rα-expressing cells; cell surface IL4R
Briefly: cell-based blocking FACS on 293F-IL4Rα cells; blocked ligand biotin human IL4.

Test [6] concerns the target T1, recombinant human TSLP-his. Kind of test: capture ELISA: antibody captured on anti-human IgG Fc F(ab')2, biotin human TSLP-his, SA-HRP. This is another data set of the same source.
Test [7] concerns the target T2, recombinant human IL4Rα-his. Briefly: competitive ELISA: coated human IL4Rα-his, antibody titrated; blocked ligand biotin human IL4.
Test [8] deals with T3, biotin-labeled human TSLP-Fc. Kind of test: cell-based blocking FACS: antibody pre-mixed with biotin human TSLP-Fc; blocked binding to cell-surface TSLPR/IL7Ra on HEK293T-TSLPR/IL7R/STAT5-Luc 5C5 cells. This is another data set of the same source.

B1: BSI-502-001 (bispecific antibody, human IgG1, kappa)
heavy: EVQLVESGGGLVQPGGSLRLSCAASGFTFSTYGMSWVRQAPGKGLVWVATINSNGGSTSYPDSVKGRFTISRDNAKNTLYLQMNSLRAEDTAVYYCARFFRFRNAMDYWGQGTLVTVSSASTKGPSVFPLAPSSKSTSGGTAALGCLVKDYFPEPVTVSWNSGALTSGVHTFPAVLQSSGLYSLSSVVTVPSSSLGTQTYICNVNHKPSNTKVDKKVEPKSCDKTHTCPPCPAPEAQGGPSVFLFPPKPKDTLYITREPEVTCVVVDVSHEDPEVKFNWYVDGVEVHNAKTKPREEQYNSTYRVVSVLTVLHQDWLNGKEYKCQVSNKALPAPIEKTISKAKGQPREPQVYTLPPSRDELTKNQVSLTCLVKGFYPSDIAVEWESNGQPENNYKTTPPVLDSDGSFFLYSKLTVDKSRWQQGNVFSCSVMHEALHNHYTQKSLSLSPGKGGGGSGGGGSQVQLVQSGAEVKKPGASVKVSCKASGYTFTTYWMHWVRQAPGQGLEWMGVIDPSDSDTTYNQKFKGRVTMTRDTSTSTVYMELSSLRSEDTAVYYCTRSLDGYYDYWGQGTLVTVSSGGGGSGGGGSGGGGSGGGGSDIQMTQSPSSLSASVGDRVTITCRPTENIYSYLAWYQQKPGKAPKLLIYFARTLAEGVPSRFSGSGSGTDFTLTISSLQPEDFATYYCQHHYGTPWTFGGGTKVEIK
light: DIQMTQSPSSLSASVGDRVTITCRTSENIYSYLAWYQQKPGKAPKFLVYNAKTLAEGVPSRFSGSGSGTDFTLTISSLQPEDFATYYCQHYYGPPTWTFGQGTKVEIKRTVAAPSVFIFPPSDEQLKSGTASVVCLLNNFYPREAKVQWKVDNALQSGNSQESVTEQDSKDSTYSLSSTLTLSKADYEKHKVYACEVTHQGLSSPVTKSFNRGEC
notes: huC2C1A1A1-V15 IgG with an anti-TSLP scFv (hu1C5F12E9-V8, VH-VL) at the C-terminus of the heavy chain
Take B1: in test [1], the “Inhibition on IL4 induced STAT6 phosphorylation (IC50, nM)” value came out at 0.00703 nM and the “Inhibition on IL13 induced STAT6 phosphorylation (IC50, nM)” value was 0.0289 nM. In addition, the concentration for a half-maximal effect (EC50) in test [2] came to 0.169 nM. Also, the EC50 in test [3] came to 0.0218 nM. In test [4], this molecule returned a 50% inhibitory concentration (IC50) of 1.73 nM.

B2: BSI-502-008 (bispecific antibody, human IgG1, kappa)
heavy: DIQMTQSPSSLSASVGDRVTITCRPTENIYSYLAWYQQKPGKAPKLLIYFARTLAEGVPSRFSGSGSGTDFTLTISSLQPEDFATYYCQHHYGTPWTFGGGTKVEIKGGGGSGGGGSGGGGSGGGGSQVQLVQSGAEVKKPGASVKVSCKASGYTFTTYWMHWVRQAPGQGLEWMGVIDPSDSDTTYNQKFKGRVTMTRDTSTSTVYMELSSLRSEDTAVYYCTRSLDGYYDYWGQGTLVTVSSGGGGSGGGGSEVQLVESGGGLVQPGGSLRLSCAASGFTFSTYGMSWVRQAPGKGLVWVATINSNGGSTSYPDSVKGRFTISRDNAKNTLYLQMNSLRAEDTAVYYCARFFRFRNAMDYWGQGTLVTVSSASTKGPSVFPLAPSSKSTSGGTAALGCLVKDYFPEPVTVSWNSGALTSGVHTFPAVLQSSGLYSLSSVVTVPSSSLGTQTYICNVNHKPSNTKVDKKVEPKSCDKTHTCPPCPAPEAQGGPSVFLFPPKPKDTLYITREPEVTCVVVDVSHEDPEVKFNWYVDGVEVHNAKTKPREEQYNSTYRVVSVLTVLHQDWLNGKEYKCQVSNKALPAPIEKTISKAKGQPREPQVYTLPPSRDELTKNQVSLTCLVKGFYPSDIAVEWESNGQPENNYKTTPPVLDSDGSFFLYSKLTVDKSRWQQGNVFSCSVMHEALHNHYTQKSLSLSPG
light: DIQMTQSPSSLSASVGDRVTITCRTSENIYSYLAWYQQKPGKAPKFLVYNAKTLAEGVPSRFSGSGSGTDFTLTISSLQPEDFATYYCQHYYGPPTWTFGQGTKVEIKRTVAAPSVFIFPPSDEQLKSGTASVVCLLNNFYPREAKVQWKVDNALQSGNSQESVTEQDSKDSTYSLSSTLTLSKADYEKHKVYACEVTHQGLSSPVTKSFNRGEC
notes: huC2C1A1A1-V15 IgG with an anti-TSLP scFv (VL-VH) at the N-terminus of the heavy chain; AQQ and YTE already stand in the entry
For the molecule B2, the IC50 in test [5] amounted to 0.169 nM; in test [7], 0.236 nM; in test [8] it was 1.13 nM. In test [6], the EC50 was determined as 0.0742 nM.

B3: BSI-502-002 (bispecific antibody, human IgG1, kappa)
heavy: EVQLVESGGGLVQPGGSLRLSCAASGFTFSTYGMSWVRQAPGKGLVWVATINSNGGSTSYPDSVKGRFTISRDNAKNTLYLQMNSLRAEDTAVYYCARFFRFRNAMDYWGQGTLVTVSSASTKGPSVFPLAPSSKSTSGGTAALGCLVKDYFPEPVTVSWNSGALTSGVHTFPAVLQSSGLYSLSSVVTVPSSSLGTQTYICNVNHKPSNTKVDKKVEPKSCDKTHTCPPCPAPEAQGGPSVFLFPPKPKDTLYITREPEVTCVVVDVSHEDPEVKFNWYVDGVEVHNAKTKPREEQYNSTYRVVSVLTVLHQDWLNGKEYKCQVSNKALPAPIEKTISKAKGQPREPQVYTLPPSRDELTKNQVSLTCLVKGFYPSDIAVEWESNGQPENNYKTTPPVLDSDGSFFLYSKLTVDKSRWQQGNVFSCSVMHEALHNHYTQKSLSLSPGKGGGGSGGGGSDIQMTQSPSSLSASVGDRVTITCRPTENIYSYLAWYQQKPGKAPKLLIYFARTLAEGVPSRFSGSGSGTDFTLTISSLQPEDFATYYCQHHYGTPWTFGGGTKVEIKGGGGSGGGGSGGGGSGGGGSQVQLVQSGAEVKKPGASVKVSCKASGYTFTTYWMHWVRQAPGQGLEWMGVIDPSDSDTTYNQKFKGRVTMTRDTSTSTVYMELSSLRSEDTAVYYCTRSLDGYYDYWGQGTLVTVSS
light: DIQMTQSPSSLSASVGDRVTITCRTSENIYSYLAWYQQKPGKAPKFLVYNAKTLAEGVPSRFSGSGSGTDFTLTISSLQPEDFATYYCQHYYGPPTWTFGQGTKVEIKRTVAAPSVFIFPPSDEQLKSGTASVVCLLNNFYPREAKVQWKVDNALQSGNSQESVTEQDSKDSTYSLSSTLTLSKADYEKHKVYACEVTHQGLSSPVTKSFNRGEC
notes: huC2C1A1A1-V15 IgG with an anti-TSLP scFv (VL-VH) at the C-terminus of the heavy chain; AQQ and YTE already stand in the entry
As to B3, in test [1], the “Inhibition on IL4 induced STAT6 phosphorylation (IC50, nM)” value was found to be 0.0129 nM and the “Inhibition on IL13 induced STAT6 phosphorylation (IC50, nM)” value is 0.031 nM. Moreover, in test [2], the EC50 came to 0.369 nM. For the same molecule, the half-maximal inhibitory concentration (IC50) in test [4] was found to be 4.23 nM.

B4: BSI-502-004 (bispecific antibody, human IgG1, kappa)
heavy: DIQMTQSPSSLSASVGDRVTITCRTSENIYSYLAWYQQKPGKAPKFLVYNAKTLAEGVPSRFSGSGSGTDFTLTISSLQPEDFATYYCQHYYGPPTWTFGQGTKVEIKGGGGSGGGGSGGGGSGGGGSEVQLVESGGGLVQPGGSLRLSCAASGFTFSTYGMSWVRQAPGKGLVWVATINSNGGSTSYPDSVKGRFTISRDNAKNTLYLQMNSLRAEDTAVYYCARFFRFRNAMDYWGQGTLVTVSSGGGGSGGGGSQVQLVQSGAEVKKPGASVKVSCKASGYTFTTYWMHWVRQAPGQGLEWMGVIDPSDSDTTYNQKFKGRVTMTRDTSTSTVYMELSSLRSEDTAVYYCTRSLDGYYDYWGQGTLVTVSSASTKGPSVFPLAPSSKSTSGGTAALGCLVKDYFPEPVTVSWNSGALTSGVHTFPAVLQSSGLYSLSSVVTVPSSSLGTQTYICNVNHKPSNTKVDKKVEPKSCDKTHTCPPCPAPEAQGGPSVFLFPPKPKDTLYITREPEVTCVVVDVSHEDPEVKFNWYVDGVEVHNAKTKPREEQYNSTYRVVSVLTVLHQDWLNGKEYKCQVSNKALPAPIEKTISKAKGQPREPQVYTLPPSRDELTKNQVSLTCLVKGFYPSDIAVEWESNGQPENNYKTTPPVLDSDGSFFLYSKLTVDKSRWQQGNVFSCSVMHEALHNHYTQKSLSLSPG
light: DIQMTQSPSSLSASVGDRVTITCRPTENIYSYLAWYQQKPGKAPKLLIYFARTLAEGVPSRFSGSGSGTDFTLTISSLQPEDFATYYCQHHYGTPWTFGGGTKVEIKRTVAAPSVFIFPPSDEQLKSGTASVVCLLNNFYPREAKVQWKVDNALQSGNSQESVTEQDSKDSTYSLSSTLTLSKADYEKHKVYACEVTHQGLSSPVTKSFNRGEC
notes: hu1C5F12E9-V8 IgG with an anti-IL4R scFv (VL-VH) at the N-terminus of the heavy chain; AQQ and YTE already stand in the entry
On to B4, for which, in test [1], the “Inhibition on IL4 induced STAT6 phosphorylation (IC50, nM)” value came to 0.0318 nM and the “Inhibition on IL13 induced STAT6 phosphorylation (IC50, nM)” value came to 0.0276 nM. The EC50 in test [2] came out at 0.103 nM. The EC50 in test [3] turned out to be 0.0346 nM. In test [4], the IC50 amounted to 1.31 nM.
